Laboratory results from PMC2935576 (The Journal of Cell Biology, 2010).
Values belong to the molecule of their own block, whether it stands above or below them.

Experiments:
Spc105p 800-829 = Spc105p 800-829 (UniProt P53148); assay: ITC, Spc105p peptide 1 with MIND complex; details: reference: untreated MIND complex; sites S250
[1] = target: recombinant S. cerevisiae NDC80 complex (Ndc80p, Nuf2p, Spc24p, Spc25p), His-tagged on Ndc80p (S. cerevisiae, UniProt P40460;P33895;Q04477;P40014); assay: ITC
Sequence of recombinant S. cerevisiae NDC80 complex (Ndc80p, Nuf2p, Spc24p, Spc25p), His-tagged on Ndc80p (P40460 whole entry, chain 1 of 4): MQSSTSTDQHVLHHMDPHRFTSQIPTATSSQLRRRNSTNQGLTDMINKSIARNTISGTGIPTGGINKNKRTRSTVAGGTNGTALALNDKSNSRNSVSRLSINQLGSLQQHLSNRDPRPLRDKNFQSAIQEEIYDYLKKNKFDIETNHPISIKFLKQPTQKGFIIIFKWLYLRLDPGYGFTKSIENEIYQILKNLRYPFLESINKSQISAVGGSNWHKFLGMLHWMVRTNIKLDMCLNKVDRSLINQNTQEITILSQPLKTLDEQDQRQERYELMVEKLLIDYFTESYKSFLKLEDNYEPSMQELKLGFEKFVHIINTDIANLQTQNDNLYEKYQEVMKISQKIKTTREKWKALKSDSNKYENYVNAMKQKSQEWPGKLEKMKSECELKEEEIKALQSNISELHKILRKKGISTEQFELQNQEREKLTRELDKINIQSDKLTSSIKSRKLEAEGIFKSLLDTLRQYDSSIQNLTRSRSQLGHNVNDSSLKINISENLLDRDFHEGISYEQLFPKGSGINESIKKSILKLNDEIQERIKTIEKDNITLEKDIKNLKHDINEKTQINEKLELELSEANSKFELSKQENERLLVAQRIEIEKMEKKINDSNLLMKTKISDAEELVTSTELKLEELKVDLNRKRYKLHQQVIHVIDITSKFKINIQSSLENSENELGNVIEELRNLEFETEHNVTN
Sequence of recombinant S. cerevisiae NDC80 complex (Ndc80p, Nuf2p, Spc24p, Spc25p), His-tagged on Ndc80p (P33895 whole entry, chain 2 of 4): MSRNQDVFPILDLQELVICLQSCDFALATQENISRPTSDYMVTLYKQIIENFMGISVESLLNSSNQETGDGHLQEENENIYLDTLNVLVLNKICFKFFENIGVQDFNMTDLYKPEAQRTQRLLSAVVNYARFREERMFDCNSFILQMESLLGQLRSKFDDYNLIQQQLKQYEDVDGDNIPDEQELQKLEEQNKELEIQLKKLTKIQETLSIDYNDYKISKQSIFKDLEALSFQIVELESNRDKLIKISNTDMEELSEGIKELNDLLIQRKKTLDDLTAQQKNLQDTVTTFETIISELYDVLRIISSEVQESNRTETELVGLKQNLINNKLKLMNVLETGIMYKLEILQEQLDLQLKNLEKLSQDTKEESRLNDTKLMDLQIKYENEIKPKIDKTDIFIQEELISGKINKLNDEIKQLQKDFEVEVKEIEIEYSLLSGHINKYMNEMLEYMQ
Sequence of recombinant S. cerevisiae NDC80 complex (Ndc80p, Nuf2p, Spc24p, Spc25p), His-tagged on Ndc80p (Q04477 whole entry, chain 3 of 4): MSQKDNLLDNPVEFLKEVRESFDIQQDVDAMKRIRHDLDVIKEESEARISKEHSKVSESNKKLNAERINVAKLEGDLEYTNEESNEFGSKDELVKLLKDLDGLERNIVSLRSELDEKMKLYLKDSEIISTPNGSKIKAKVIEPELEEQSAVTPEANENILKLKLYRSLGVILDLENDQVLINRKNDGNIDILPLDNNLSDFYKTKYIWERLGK
Sequence of recombinant S. cerevisiae NDC80 complex (Ndc80p, Nuf2p, Spc24p, Spc25p), His-tagged on Ndc80p (P40014 whole entry, chain 4 of 4): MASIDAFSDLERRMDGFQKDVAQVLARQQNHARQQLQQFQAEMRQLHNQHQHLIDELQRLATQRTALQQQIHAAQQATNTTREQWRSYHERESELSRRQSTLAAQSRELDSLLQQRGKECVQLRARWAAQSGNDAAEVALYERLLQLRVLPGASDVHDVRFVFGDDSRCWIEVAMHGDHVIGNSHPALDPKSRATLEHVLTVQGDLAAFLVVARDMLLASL

Dsn1p–Nsl1p heterodimer = target: T1, Dsn1p–Nsl1p heterodimer (S. cerevisiae, UniProt P40568;Q12143); assay: AUC
T1 sequence 1: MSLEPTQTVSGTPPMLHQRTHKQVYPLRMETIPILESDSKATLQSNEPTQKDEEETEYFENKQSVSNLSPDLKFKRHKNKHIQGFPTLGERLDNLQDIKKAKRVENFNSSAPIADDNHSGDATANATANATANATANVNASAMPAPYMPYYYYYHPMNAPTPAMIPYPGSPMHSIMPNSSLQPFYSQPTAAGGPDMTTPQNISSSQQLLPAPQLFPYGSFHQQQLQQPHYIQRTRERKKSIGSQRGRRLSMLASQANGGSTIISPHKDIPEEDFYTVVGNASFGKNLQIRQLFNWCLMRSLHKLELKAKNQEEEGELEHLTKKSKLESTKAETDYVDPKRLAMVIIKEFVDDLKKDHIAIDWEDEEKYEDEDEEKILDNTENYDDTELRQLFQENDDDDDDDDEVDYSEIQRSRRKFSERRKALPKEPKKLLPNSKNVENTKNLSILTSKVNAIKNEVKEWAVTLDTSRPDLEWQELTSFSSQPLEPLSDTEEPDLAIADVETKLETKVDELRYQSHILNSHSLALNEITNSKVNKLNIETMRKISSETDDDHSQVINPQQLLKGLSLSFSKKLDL
T1 sequence 2: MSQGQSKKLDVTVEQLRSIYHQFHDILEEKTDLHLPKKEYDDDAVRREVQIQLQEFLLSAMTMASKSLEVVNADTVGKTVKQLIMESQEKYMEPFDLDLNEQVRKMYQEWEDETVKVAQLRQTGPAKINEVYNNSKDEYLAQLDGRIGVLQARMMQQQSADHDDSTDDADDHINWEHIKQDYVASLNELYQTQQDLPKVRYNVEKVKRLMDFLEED

[2] = target: T2, Dsn1p residues 103–412 (trypsin-resistant fragment) (S. cerevisiae, UniProt P40568 103-412); assay: limited proteolysis
T2 sequence: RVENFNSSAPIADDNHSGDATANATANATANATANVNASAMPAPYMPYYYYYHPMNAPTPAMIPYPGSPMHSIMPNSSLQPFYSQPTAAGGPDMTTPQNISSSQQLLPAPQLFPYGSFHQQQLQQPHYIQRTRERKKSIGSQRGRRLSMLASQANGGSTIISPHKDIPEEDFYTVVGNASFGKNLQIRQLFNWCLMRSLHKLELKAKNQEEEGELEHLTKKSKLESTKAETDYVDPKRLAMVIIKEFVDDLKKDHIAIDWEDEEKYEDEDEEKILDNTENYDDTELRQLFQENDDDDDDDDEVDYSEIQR

[3] = target: T3, Mtw1p residues 1–220 (trypsin-resistant fragment) (S. cerevisiae, UniProt P39731 1-220); assay: limited proteolysis
T3 sequence: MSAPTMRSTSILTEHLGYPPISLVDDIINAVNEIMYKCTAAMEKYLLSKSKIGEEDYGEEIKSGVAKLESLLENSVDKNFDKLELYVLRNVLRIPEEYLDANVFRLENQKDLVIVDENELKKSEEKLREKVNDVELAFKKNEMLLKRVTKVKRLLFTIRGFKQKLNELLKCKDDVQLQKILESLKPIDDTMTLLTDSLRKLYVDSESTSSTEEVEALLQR

Molecule: Dsn1p (from UniProt P40568) Ipl1p-phosphorylated MIND complex (Dsn1p pS250)
binding against the reference (Spc105p 800-829): same

binding result [1]: binds
B1: MIND complex phosphorylated on Dsn1p Ser250 by Ipl1p (complex)
chain 1: MSLEPTQTVSGTPPMLHQRTHKQVYPLRMETIPILESDSKATLQSNEPTQKDEEETEYFENKQSVSNLSPDLKFKRHKNKHIQGFPTLGERLDNLQDIKKAKRVENFNSSAPIADDNHSGDATANATANATANATANVNASAMPAPYMPYYYYYHPMNAPTPAMIPYPGSPMHSIMPNSSLQPFYSQPTAAGGPDMTTPQNISSSQQLLPAPQLFPYGSFHQQQLQQPHYIQRTRERKKSIGSQRGRRLSMLASQANGGSTIISPHKDIPEEDFYTVVGNASFGKNLQIRQLFNWCLMRSLHKLELKAKNQEEEGELEHLTKKSKLESTKAETDYVDPKRLAMVIIKEFVDDLKKDHIAIDWEDEEKYEDEDEEKILDNTENYDDTELRQLFQENDDDDDDDDEVDYSEIQRSRRKFSERRKALPKEPKKLLPNSKNVENTKNLSILTSKVNAIKNEVKEWAVTLDTSRPDLEWQELTSFSSQPLEPLSDTEEPDLAIADVETKLETKVDELRYQSHILNSHSLALNEITNSKVNKLNIETMRKISSETDDDHSQVINPQQLLKGLSLSFSKKLDL
chain 2: MSAPTMRSTSILTEHLGYPPISLVDDIINAVNEIMYKCTAAMEKYLLSKSKIGEEDYGEEIKSGVAKLESLLENSVDKNFDKLELYVLRNVLRIPEEYLDANVFRLENQKDLVIVDENELKKSEEKLREKVNDVELAFKKNEMLLKRVTKVKRLLFTIRGFKQKLNELLKCKDDVQLQKILESLKPIDDTMTLLTDSLRKLYVDSESTSSTEEVEALLQRLKTNGKQNNKDFRTRYIDIRTNNVLRKLGLLGDKEDEKQSAKPDARTQAGDIVSIDIEEPQLDLLDDVL
chain 3: MVNSHGIRYIRLKQVFNRALDQSISKLQSWDKVSSCFPQYVNSKQGAINVANCQRQLTEFWTELCQREFKEIMEERNVEQKLNELDELILEAKERYTDRDQDEVNKGPAIDELSSKELVECHLYSQRMHAIHEIDERLAKVNEMNDQLAQELKDLETQVEVEKNEIGKMYDEYLGSHTDQPANVLLVQSLNDMVLELKENY
chain 4: MSQGQSKKLDVTVEQLRSIYHQFHDILEEKTDLHLPKKEYDDDAVRREVQIQLQEFLLSAMTMASKSLEVVNADTVGKTVKQLIMESQEKYMEPFDLDLNEQVRKMYQEWEDETVKVAQLRQTGPAKINEVYNNSKDEYLAQLDGRIGVLQARMMQQQSADHDDSTDDADDHINWEHIKQDYVASLNELYQTQQDLPKVRYNVEKVKRLMDFLEED
modifications: phosphoserine at 250

stoichiometry N (Dsn1p–Nsl1p heterodimer): 1
B2: Mtw1p–Nnf1p heterodimer (complex)
chain 1: MSAPTMRSTSILTEHLGYPPISLVDDIINAVNEIMYKCTAAMEKYLLSKSKIGEEDYGEEIKSGVAKLESLLENSVDKNFDKLELYVLRNVLRIPEEYLDANVFRLENQKDLVIVDENELKKSEEKLREKVNDVELAFKKNEMLLKRVTKVKRLLFTIRGFKQKLNELLKCKDDVQLQKILESLKPIDDTMTLLTDSLRKLYVDSESTSSTEEVEALLQRLKTNGKQNNKDFRTRYIDIRTNNVLRKLGLLGDKEDEKQSAKPDARTQAGDIVSIDIEEPQLDLLDDVL
chain 2: MVNSHGIRYIRLKQVFNRALDQSISKLQSWDKVSSCFPQYVNSKQGAINVANCQRQLTEFWTELCQREFKEIMEERNVEQKLNELDELILEAKERYTDRDQDEVNKGPAIDELSSKELVECHLYSQRMHAIHEIDERLAKVNEMNDQLAQELKDLETQVEVEKNEIGKMYDEYLGSHTDQPANVLLVQSLNDMVLELKENY

binding result [2]: binds
B3: Nsl1p (natural protein)
chain: MSQGQSKKLDVTVEQLRSIYHQFHDILEEKTDLHLPKKEYDDDAVRREVQIQLQEFLLSAMTMASKSLEVVNADTVGKTVKQLIMESQEKYMEPFDLDLNEQVRKMYQEWEDETVKVAQLRQTGPAKINEVYNNSKDEYLAQLDGRIGVLQARMMQQQSADHDDSTDDADDHINWEHIKQDYVASLNELYQTQQDLPKVRYNVEKVKRLMDFLEED

binding result [3]: binds
B4: Nnf1p (natural protein)
chain: MVNSHGIRYIRLKQVFNRALDQSISKLQSWDKVSSCFPQYVNSKQGAINVANCQRQLTEFWTELCQREFKEIMEERNVEQKLNELDELILEAKERYTDRDQDEVNKGPAIDELSSKELVECHLYSQRMHAIHEIDERLAKVNEMNDQLAQELKDLETQVEVEKNEIGKMYDEYLGSHTDQPANVLLVQSLNDMVLELKENY
